# Measurements taken from patent US20220010018A1 (ALBERT EINSTEIN COLLEGE OF MEDICINE, published 2022).
# T1: Human B7-H3 (human, UniProt Q5ZPR3 29-461, limits assumed)
# T1 construct: also called human B7-H3 (SPR antigen)
# T1 sequence: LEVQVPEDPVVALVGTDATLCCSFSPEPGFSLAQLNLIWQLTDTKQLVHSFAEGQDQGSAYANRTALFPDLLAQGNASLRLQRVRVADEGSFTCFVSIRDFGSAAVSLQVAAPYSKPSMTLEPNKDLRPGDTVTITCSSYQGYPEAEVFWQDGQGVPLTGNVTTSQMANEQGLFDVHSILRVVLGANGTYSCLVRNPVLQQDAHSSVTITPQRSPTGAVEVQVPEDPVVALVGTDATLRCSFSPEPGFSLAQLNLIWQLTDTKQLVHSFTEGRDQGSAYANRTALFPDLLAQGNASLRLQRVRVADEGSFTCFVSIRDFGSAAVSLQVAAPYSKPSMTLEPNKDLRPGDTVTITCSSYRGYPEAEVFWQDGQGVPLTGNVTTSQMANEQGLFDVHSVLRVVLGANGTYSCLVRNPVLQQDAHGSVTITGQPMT
# T2: Mouse B7-H3 (mouse, UniProt Q8VE98 29-244, limits assumed)
# T2 construct: The construct used in SPR is not described; also called mouse B7-H3 (SPR antigen)
# T2 sequence (looked up): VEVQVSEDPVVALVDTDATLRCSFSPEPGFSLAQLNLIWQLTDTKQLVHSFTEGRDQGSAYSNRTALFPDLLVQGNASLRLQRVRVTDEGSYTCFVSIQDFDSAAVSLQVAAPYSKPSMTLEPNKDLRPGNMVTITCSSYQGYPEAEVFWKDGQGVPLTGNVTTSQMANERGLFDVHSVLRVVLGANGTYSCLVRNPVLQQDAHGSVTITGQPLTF
# B1: monoclonal antibody 8B12 (antibody, IgG3, V domains shown)
# VH: QVQLQQPGAELVKPGASVKMSCKASGYTFTSYWITWVKQRPGQGLEWIGDIYPGSGSTNYNEKFKSKATLTVDTSSSTAYMQLSSLTSEDSAVYYCARGGTRFSPFAYWGQGTLVTVSA
# VL: DVLMTQTPLSLPVSLGDQASISCRSSQSIVHSNGNTYLEWYLQKPGQSPKLLIYKVSNRFSGVPDRFSGSGSGTDFTLKISRVEAEDLGVYYCFQGSHVPWTFGGGTKLEIKR
# notes: Residue limits come from CLM-00006; also called mAb 8B12
# B2: monoclonal antibody 12B4 (antibody, IgG2b, V domains shown)
# VH: QVQLQQPGAELVKPGASVKLSCKASGYTFTSYWMHWVKQRPGQGLEWIGMIHPNSGSTNYNEKFKSKATLTVDKSSSTAYMQLSSLTSEDSAVYYCARYYYGSSYAMDYWGQGTSVTVS
# VL: QIVLTQSPAIMSASPGEKVTITCSASSSVSYMHWFQQKPGTSPKLWIYSTSNLASGVPARFSGSGSGTSYSLTISRMEAEDAATYYCQQRSSYPYTFGGGTKLEIKR
# notes: Residue limits come from CLM-00006; also called mAb 12B4
# What was measured:
# Human B7-H3 = molecular target: T1, Human B7-H3; experiment: Surface Plasmon Resonance
# Mouse B7-H3 = molecular target: T2, Mouse B7-H3; experiment: Surface Plasmon Resonance
Binder,Kd (Human B7-H3) [nM],koff (Human B7-H3) [s⁻¹],kon (Human B7-H3) [M⁻¹ s⁻¹],Kd (Mouse B7-H3) [nM],koff (Mouse B7-H3) [s⁻¹],kon (Mouse B7-H3) [M⁻¹ s⁻¹]
B1,0.3,0.000459,1.51e+06,4.01,0.00237,592000
B2,8.23,0.00509,618000,15.4,0.0184,1.19e+06
